Measurements from article PMC3548785, “Identification of a Binding Site for ASF/SF2 on an RNA Fragment Derived from the Hepatitis delta Virus Genome”.

How the values were obtained:
His-ASF/SF2 [1] = target: T1, His-ASF/SF2 (UniProt Q07955 1-248); assay: intrinsic tryptophan fluorescence quenching; apparent KD; 100 mM KCl, 20 mM Tris-HCl pH 7.5, room temperature, 100 nM His-ASF/SF2, excitation 280 nm, emission 340 nm; conditions: protein: recombinant, tags: C-terminal His6
His-ASF/SF2 [2] = target: T1, His-ASF/SF2; assay: intrinsic tryptophan fluorescence quenching; no appKD could be calculated; 100 mM KCl, 20 mM Tris-HCl pH 7.5, room temperature, 100 nM His-ASF/SF2, excitation 280 nm, emission 340 nm; conditions: protein: recombinant; tags: C-terminal His6; hairpin
His-ASF/SF2 [3] = target: T1, His-ASF/SF2; assay: intrinsic tryptophan fluorescence quenching; no appKD; loss of binding stated; 100 mM KCl, 20 mM Tris-HCl pH 7.5, room temperature, 100 nM His-ASF/SF2, excitation 280 nm, emission 340 nm; conditions: protein: recombinant; tags: C-terminal His6; hairpin

T1 sequence (Q07955 whole entry): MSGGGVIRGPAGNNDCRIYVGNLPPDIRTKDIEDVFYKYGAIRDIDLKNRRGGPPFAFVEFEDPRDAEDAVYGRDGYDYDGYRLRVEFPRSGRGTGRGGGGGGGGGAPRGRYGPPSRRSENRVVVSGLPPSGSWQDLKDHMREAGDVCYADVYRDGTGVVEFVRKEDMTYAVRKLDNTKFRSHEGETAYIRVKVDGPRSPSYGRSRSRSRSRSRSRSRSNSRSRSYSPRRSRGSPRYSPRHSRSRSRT

| Binder | Kd (His-ASF/SF2 [1]; hairpin) [nM] | binding result (His-ASF/SF2 [2]) | further results |
| --- | --- | --- | --- |
| R199G (structured_RNA) RNA: GGGACUGCUCGAGGAUCUCUUCUCUCCCUCCGCGGUUCUUCCUCGACUCGGCCCGGCUCAUCUCGGCUAGAGGCGGCAGUCCUCAGUACUCUUACUCUUUUCUGUAAAGAGGAGACUGCUGGACUCGCCGCCCGAGGCCGAGCCUGAGCCAAGUGCCGAGCGAGGAGACGCGGGGGGAGGAUCAGCACCCGAGAGGGGAUGU |  |  | Kd (His-ASF/SF2 [1]; rod-like hairpin): ~640 nM |
| R177G (structured_RNA) RNA: GGAUCUCUUCUCUCCCUCCGCGGUUCUUCCUCGACUCGGCCCGGCUCAUCUCGGCUAGAGGCGGCAGUCCUCAGUACUCUUACUCUUUUCUGUAAAGAGGAGACUGCUGGACUCGCCGCCCGAGGCCGAGCCUGAGCCAAGUGCCGAGCGAGGAGACGCGGGGGGAGGAUCAGCACC | ~870 |  |  |
| R156G (structured_RNA) RNA: CUCCCUCCGCGGUUCUUCCUCGACUCGGCCCGGCUCAUCUCGGCUAGAGGCGGCAGUCCUCAGUACUCUUACUCUUUUCUGUAAAGAGGAGACUGCUGGACUCGCCGCCCGAGGCCGAGCCUGAGCCAAGUGCCGAGCGAGGAGACGCGGGGGGAG |  | no binding |  |
| R161G (structured_RNA) RNA: UCUCUCCCUCCGCGGUUCUUCCUCGACUCGGCCCGGCUCAUCUCGGCUAGAGGCGGCAGUCCUCAGUACUCUUACUCUUUUCUGUAAAGAGGAGACUGCUGGACUCGCCGCCCGAGGCCGAGCCUGAGCCAAGUGCCGAGCGAGGAGACGCGGGGGGAGGA | ~900 |  |  |
| R177GΔASF (structured_RNA) RNA: GGAUCUCUUCCGCGGUUCUUCCUCGACUCGGCCCGGCUCAUCUCGGCUAGAGGCGGCAGUCCUCAGUACUCUUACUCUUUUCUGUAAAGAGGAGACUGCUGGACUCGCCGCCCGAGGCCGAGCCUGAGCCAAGUGCCGAGCGAGGAGACGCGGGUCAGCACC |  |  | binding result (His-ASF/SF2 [3]): no binding |
| AGUCCUCAGUACUCUUACUCUUUUCUGUAAAGAGGAGACUGCUGGACU (structured_RNA) [R47G] |  | no binding |  |
